Changes are numbered by the printed parent chain.
How the values were obtained:
[1] = target: the molecule itself; assay: cryo-EM structure; purified NOX5 in 0.05% digitonin; pre-reaction (5 mM EGTA + 1 mM NADPH), intermediate (1 mM CaCl2 + 1 mM NADPH) and post-reaction (1 mM CaCl2 + 1.2 mM NADP+ + 60 uM FAD) states; C2 symmetry imposed
[2] = target: the molecule itself; assay: SEC; Trp fluorescence-based gel filtration; Superose 6 Increase; 20 mM Tris pH 8.0, 200 mM NaCl, 0.004% LMNG/CHS; excitation 280 nm, emission 350 nm

B1: full-length human NADPH oxidase 5 (NOX5), NOX5-β variant (enzyme, UniProt Q96PH1-4 1-719, looked up)
chain: MSAEEDARWLRWVTQQFKTIAGEDGEISLQEFKAALHVKESFFAERFFALFDSDRSGTITLQELQEALTLLIHGSPMDKLKFLFQVYDIDGSGSIDPDELRTVLQSCLRESAISLPDEKLDQLTLALFESADADGNGAITFEELRDELQRFPGVMENLTISAAHWLTAPAPRPRPRRPRQLTRAYWHNHRSQLFCLATYAGLHVLLFGLAASAHRDLGASVMVAKGCGQCLNFDCSFIAVLMLRRCLTWLRATWLAQVLPLDQNIQFHQLMGYVVVGLSLVHTVAHTVNFVLQAQAEASPFQFWELLLTTRPGIGWVHGSASPTGVALLLLLLLMFICSSSCIRRSGHFEVFYWTHLSYLLVWLLLIFHGPNFWKWLLVPGILFFLEKAIGLAVSRMAAVCIMEVNLLPSKVTHLLIKRPPFFHYRPGDYLYLNIPTIARYEWHPFTISSAPEQKDTIWLHIRSQGQWTNRLYESFKASDPLGRGSKRLSRSVTMRKSQRSSKGSEILLEKHKFCNIKCYIDGPYGTPTRRIFASEHAVLIGAGIGITPFASILQSIMYRHQKRKHTCPSCQHSWIEGVQDNMKLHKVDFIWINRDQRSFEWFVSLLTKLEMDQAEEAQYGRFLELHMYMTSALGKNDMKAIGLQMALDLLANKEKKDSITGLQTRTQPGRPDWSKVFQKVAAEKKGKVQVFFCGSPALAKVLKGHCEKFGFRFFQENF
notes: NADPH oxidase 5, human, NOX5-β variant (called v2 isoform in the methods); full length; a Zn2+ is modelled between the two CXXC motifs at the dimer interface; also called NOX5 v2 isoform; hNOX5; source: HEK293F, BacMam virus, purified (GFP-nanobody beads, preScission cleavage, Superose 6 SEC in digitonin); not shown: GFP, N-terminal, cleaved
stoichiometry N [1]: 2

B2: NOX5 R531A (enzyme, human, UniProt Q96PH1-4 1-719, looked up)
chain: B1 chain with R531A
notes: NADPH oxidase 5, human, NOX5-β variant (v2 isoform in the methods; UniProt Q96PH1-4), point mutant; source: HEK293F, purified with the same protocol as NOX5 wild type (GFP-nanobody beads, preScission cleavage); not shown: GFP, N-terminal, cleaved
binding result [2]: binds

B3: NOX5 R530A (enzyme, human, UniProt Q96PH1-4 1-719, looked up)
chain: B1 chain with R530A
notes: as for B2
binding result [2]: binds

B4: NOX5 R426A (enzyme, human, UniProt Q96PH1-4 1-719, looked up)
chain: B1 chain with R426A
notes: as for B2
binding result [2]: binds

— paper PMC11088703, “Structural basis of human NOX5 activation” (Nature Communications, 2024)
